B1: Aurora kinase C (Homo sapiens), Q9UQB9 (parent)
chain: MSSPRAVVQLGKAQPAGEELATANQTAQQPSSPAMRRLTVDDFEIGRPLGKGKFGNVYLARLKESHFIVALKVLFKSQIEKEGLEHQLRREIEIQAHLQHPNILRLYNYFHDARRVYLILEYAPRGELYKELQKSEKLDEQRTATIIEELADALTYCHDKKVIHRDIKPENLLLGFRGEVKIADFGWSVHTPSLRRKTMCGTLDYLPPEMIEGRTYDEKVDLWCIGVLCYELLVGYPPFESASHSETYRRILKVDVRFPLSMPLGARDLISRLLRYQPLERLPLAQILKHPWVQAHSRRVLPPCAQMAS

Variants of: B1
Conditions: with ince_human INCENP

| effect of a mutation on the interaction | Variant |
| --- | --- |
| disrupting interaction | T202A |
| disrupting interaction | T198A |

Variants of: B1
Conditions: with ince_human INCENP
Remark: another data set of the same source

| effect of a mutation on the interaction | Variant |
| --- | --- |
| disrupting interaction | K76R |

From IntAct's records for PubMed 27332895
